In US11499162B2, “Plants having increased tolerance to herbicides” (BASF SE, priority 2016, dated 2022):
Where a chain is given by its changes, count along the chain named. In names and notes the source's numbering stands.

B1: Q71NL92AM155TF157V: mutated TriA variant of SEQ ID NO: 2 (protein)
chain: MQTLSIQHGTLVTMDQYRRVLGDSWVHVQDGRIVALGVHAESVPPPADRVIDARGKVVLPGFINAHTHVNNILLRGGPSHGRQLYDWLFNVAYPGQKAMRPEDVAVAVRLYCAEAVRSGITTINDNADSAIYPGNIEAAMAVYGEVGVRVVYARTFVDRMDGRIQGYVDALKARSPQVELCSIMEETAVAKDRITALSDQYHGTAGGRISVWPAPAITPAVTVEGMRWAQAFARDRAVMWTLHMAESDHDERLHWMSPAEYMECYGLLDERLQVAHCVYFDRKDVRLLHRHNVKVASQVVSNAYLGSGVAPVPEMVERGMAVGIGTDDGNCNDSVNMIGDMKFMAHIHRAVHRDADVLTPEKILEMATIDGARSLGMDHEIGSIETGKRADLILLDLRHPQTTPHHHLAATIVFQAYGNEVDTVLIDGNVVMENRRLSFLPPERELAFLEEAQSRATAILQRANMVANPAWRSL
modifications: Pseudomonas
B2: D328G: mutated TriA variant of SEQ ID NO: 2 (protein)
chain: B1 chain with N71Q, A92L, T155M, V157F, D328G
modifications: Pseudomonas
B3: L92AY93L: mutated TriA variant of SEQ ID NO: 2 (protein)
chain: B1 chain with N71Q, Y93L, T155M, V157F
modifications: Pseudomonas
B4: M160G: mutated TriA variant of SEQ ID NO: 2 (protein)
chain: B1 chain with N71Q, A92L, T155M, V157F, M160G
modifications: Pseudomonas
B5: F89AL92AY93L: mutated TriA variant of SEQ ID NO: 2 (protein)
chain: B1 chain with N71Q, F89A, Y93L, T155M, V157F
modifications: Pseudomonas
B6: N70VQ71T: mutated TriA variant of SEQ ID NO: 2 (protein)
chain: B1 chain with N70V, N71T, A92L, T155M, V157F
modifications: Pseudomonas
B7: Y85LL92AY93LD250S: mutated TriA variant of SEQ ID NO: 2 (protein)
chain: B1 chain with N71Q, Y85L, Y93L, T155M, V157F, D250S
modifications: Pseudomonas
B8: L92AY93A: mutated TriA variant of SEQ ID NO: 2 (protein)
chain: B1 chain with N71Q, Y93A, T155M, V157F
modifications: Pseudomonas
B9: L92AF89A: mutated TriA variant of SEQ ID NO: 2 (protein)
chain: B1 chain with N71Q, F89A, T155M, V157F
modifications: Pseudomonas
B10: F89A: mutated TriA variant of SEQ ID NO: 2 (protein)
chain: B1 chain with N71Q, F89A, A92L, T155M, V157F
modifications: Pseudomonas
B11: Y85LL92AY93LD128AD250S: mutated TriA variant of SEQ ID NO: 2 (protein)
chain: B1 chain with N71Q, Y85L, Y93L, D128A, T155M, V157F, D250S
modifications: Pseudomonas
B12: Y85LF89AL92AY93L: mutated TriA variant of SEQ ID NO: 2 (protein)
chain: B1 chain with N71Q, Y85L, F89A, Y93L, T155M, V157F
modifications: Pseudomonas
B13: Q71C: mutated TriA variant of SEQ ID NO: 2 (protein)
chain: B1 chain with N71C, A92L, T155M, V157F
modifications: Pseudomonas
B14: L92AY93LD250S: mutated TriA variant of SEQ ID NO: 2 (protein)
chain: B1 chain with N71Q, Y93L, T155M, V157F, D250S
modifications: Pseudomonas
B15: D328A: mutated TriA variant of SEQ ID NO: 2 (protein)
chain: B1 chain with N71Q, A92L, T155M, V157F, D328A
modifications: Pseudomonas
B16: Y93A: mutated TriA variant of SEQ ID NO: 2 (protein)
chain: B1 chain with N71Q, A92L, Y93A, T155M, V157F
modifications: Pseudomonas
B17: Y93F: mutated TriA variant of SEQ ID NO: 2 (protein)
chain: B1 chain with N71Q, A92L, Y93F, T155M, V157F
modifications: Pseudomonas
B18: L88AL92AY93L: mutated TriA variant of SEQ ID NO: 2 (protein)
chain: B1 chain with N71Q, L88A, Y93L, T155M, V157F
modifications: Pseudomonas
B19: Q71NL92AM155VF157L: mutated TriA variant of SEQ ID NO: 2 (protein)
chain: B1 chain with T155V, V157L
modifications: Pseudomonas
B20: L88AL92AY93V: mutated TriA variant of SEQ ID NO: 2 (protein)
chain: B1 chain with N71Q, L88A, Y93V, T155M, V157F
modifications: Pseudomonas
B21: N70VQ71V: mutated TriA variant of SEQ ID NO: 2 (protein)
chain: B1 chain with N70V, N71V, A92L, T155M, V157F
modifications: Pseudomonas
B22: D250S: mutated TriA variant of SEQ ID NO: 2 (protein)
chain: B1 chain with N71Q, A92L, T155M, V157F, D250S
modifications: Pseudomonas
B23: L92AY93F: mutated TriA variant of SEQ ID NO: 2 (protein)
chain: B1 chain with N71Q, Y93F, T155M, V157F
modifications: Pseudomonas
B24: Y93V: mutated TriA variant of SEQ ID NO: 2 (protein)
chain: B1 chain with N71Q, A92L, Y93V, T155M, V157F
modifications: Pseudomonas
B25: F89LL92AY93L: mutated TriA variant of SEQ ID NO: 2 (protein)
chain: B1 chain with N71Q, F89L, Y93L, T155M, V157F
modifications: Pseudomonas
B26: Y93L: mutated TriA variant of SEQ ID NO: 2 (protein)
chain: B1 chain with N71Q, A92L, Y93L, T155M, V157F
modifications: Pseudomonas
B27: L92AF89AY93A: mutated TriA variant of SEQ ID NO: 2 (protein)
chain: B1 chain with N71Q, F89A, Y93A, T155M, V157F
modifications: Pseudomonas
B28: Q71NL92AD328G: mutated TriA variant of SEQ ID NO: 2 (protein)
chain: B1 chain with T155M, V157F, D328G
modifications: Pseudomonas
B29: Y85LL92AY93V: mutated TriA variant of SEQ ID NO: 2 (protein)
chain: B1 chain with N71Q, Y85L, Y93V, T155M, V157F
modifications: Pseudomonas

Format: biochemical
Conditions: pH 7.2
How it was run: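 E. coli resting cells expressing His-tagged TriA incubated with azines, melamine or atrazine. Enzyme in 25 mM sodium phosphate pH 7.2 at 30 °C, substrate 1–10 nM. Loss of parent and formation of OH-metabolite followed by UPLC-HR-MS; % degradation relative to empty-vector cells.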

Row | Molecule | Degradation in % of 6-cyclopentyl-N4-(2,3,4,5,6-pentafluorophenyl)-1,3,5-triazine-2,4-diamine | Degradation in % of Melamine
1 | B1 | 99% | 52%
2 | B2 | 19% | 0%
3 | B3 | 99% | 100%
4 | B4 | 29% | 100%
5 | B5 | 99% | 7%
6 | B6 | 0% | 0%
7 | B7 | 36% | 0%
8 | B8 | 56% | 1%
9 | B9 | 100% | 100%
10 | B10 | 26% | 100%
11 | B11 | 9% | 0%
12 | B12 | 15% | 0%
13 | B13 | 0% | 5%
14 | B14 | 99% | 0%
15 | B15 | 95% | 5%
16 | B16 | 66% | 100%
17 | B17 | 33% | 98%
18 | B18 | 35% | 0%
19 | B19 | 100% | 67%
20 | B20 | 25% | 0%
21 | B21 | 0% | 0%
22 | B22 | 16% | 0%
23 | B23 | 100% | 100%
24 | B24 | 98% | 100%
25 | B25 | 35% | 0%
26 | B26 | 82% | 100%
27 | B27 | 100% | 63%
28 | B28 | 6% | 0%
29 | B29 | 24% | 0%
